The supplement of paper PMC10126150
± gives the standard deviation of the averaged measurements.

test system: ATP; test: switch fluorescence ratio, 500 uM ATP over buffer (Cy3 cluster intensity, sum of 5 cycles each) (fold (ratio)); higher = stronger signal-on switching upon ATP binding; sequences stand for … in TCGTCGGCAGCGTCAGATGTGTATAAGAGACAGTTTTTTTTTTTTTTTTTTTTTTTTT…TC; details: aptamer strand: ATP DNA aptamer (quencher-CACCTGGGGGAGTATTGCGGAGGAAGG + anchor), 100 nM annealed; ATP concentration: 500 uM
Procedure, shortened: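 For every switch-domain sequence, the fluorescence ratio is the mean of per-cluster values, each being summed target-cycle Cy3 intensity over summed buffer-cycle Cy3 intensity. Clusters outside 100-1000 RFU were excluded. On a modified Illumina MiSeq flow-cell, the Cy3-labelled switching-strand clusters were annealed to 100 nM quencher-labelled ATP aptamer, imaged in selection buffer and then after 15 min with 500 uM ATP at 22 °C. Five such cycles were run, with NaOH stripping and re-annealing between them.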
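Also: ATP exposure 15 min at 22 °C before imaging.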

AGTTTTCGTG and AGTTTTGCGC are within error of each other in switch fluorescence ratio: 0.99 ± 0.03 for the first, 0.972 ± 0.034 for the second.

Compared with AGTTTTGGCG, AGTTTTGTTA is higher in switch fluorescence ratio: 0.973 ± 0.0047 for the first, 1.02 ± 0.019 for the second.

AGTTTTGTTC and AGTTTTGTTG are within error of each other in switch fluorescence ratio: 1.01 ± 0.019 for the first, 0.989 ± 0.036 for the second.

AGTTTTTACC and AGTTTTTCAA are within error of each other in switch fluorescence ratio: 1.01 ± 0.046 for the first, 0.9984 ± 0.0073 for the second.

ATAAAAACCG and ATAAAAAGCA are within error of each other in switch fluorescence ratio: 1.01 ± 0.053 for the first, 0.995 ± 0.04 for the second.

ATAAAAAGGT and ATAAAAAGTT are within error of each other in switch fluorescence ratio: 0.987 ± 0.013 for the first, 0.984 ± 0.034 for the second.

First: ATAAAAGCTT
Second: ATAAAAGGGG
The switch fluorescence ratio of the first is higher: 1.03 ± 0.014 for the first, 1.001 ± 0.0097 for the second.

Compared with ATAAAAGTCC, ATAAAATTA is higher in switch fluorescence ratio: 0.979 ± 0.017 for the first, 1.011 ± 0.01 for the second.

Compared with ATAAAGAAGT, ATAAAGATGG is lower in switch fluorescence ratio: 1.007 ± 0.0052 for the first, 0.95924 ± 0.00085 for the second.

ATAAAGCATA and ATAAAGGGAT are within error of each other in switch fluorescence ratio: 1.03 ± 0.026 for the first, 1 ± 0.034 for the second.

ATAAAGGTCG and ATAACAAATT are within error of each other in switch fluorescence ratio: 1.06 ± 0.1 for the first, 1.03 ± 0.031 for the second.

Going from ATAACAGGGC to ATAACGATCT, the switch fluorescence ratio rises from 0.952 ± 0.037 to 1.04 ± 0.022.

ATAACGGCCT and ATAACTTTTT are within error of each other in switch fluorescence ratio: 1.007 ± 0.0099 for the first, 0.992 ± 0.054 for the second.

ATAAGAAGTG and ATAAGACTGG are within error of each other in switch fluorescence ratio: 1.05 ± 0.072 for the first, 0.9819 ± 0.0053 for the second.

ATAAGAGACT and ATAAGATATG are within error of each other in switch fluorescence ratio: 1.01 ± 0.03 for the first, 0.999 ± 0.012 for the second.

ATAAGATTAC and ATAAGCCTGG are the same in switch fluorescence ratio: 1.012 ± 0.0091 for the first, 1.01 ± 0.041 for the second.

ATAAGCGAAG and ATAAGCGCAG are within error of each other in switch fluorescence ratio: 0.993 ± 0.028 for the first, 1.008 ± 7e-05 for the second.

ATAAGGAGTG and ATAAGGATCT are within error of each other in switch fluorescence ratio: 0.996 ± 0.021 for the first, 1.03 ± 0.016 for the second.

ATAAGGCAGG and ATAAGGGATG are within error of each other in switch fluorescence ratio: 0.999 ± 0.024 for the first, 0.998 ± 0.017 for the second.

ATAAGGGGTT and ATAAGTGATA are within error of each other in switch fluorescence ratio: 0.993 ± 0.039 for the first, 1.02 ± 0.025 for the second.

Compared with ATAAGTGCGA, ATAAGTGTCT is higher in switch fluorescence ratio: 0.9826 ± 0.002 for the first, 1.02 ± 0.011 for the second.

ATAAGTTAGT and ATAATAATGT are within error of each other in switch fluorescence ratio: 0.989 ± 0.016 for the first, 1.002 ± 0.0045 for the second.

Going from ATAATAATTT to ATAATACGCC, the switch fluorescence ratio rises from 1.02 ± 0.011 to 1.17 ± 0.013.

ATAATAGGGA and ATAATATTTG are within error of each other in switch fluorescence ratio: 0.982 ± 0.014 for the first, 0.985 ± 0.015 for the second.

ATAATGATGT and ATAATGATTG are within error of each other in switch fluorescence ratio: 0.97 ± 0.026 for the first, 0.994 ± 0.016 for the second.

ATAATTCGGG and ATAATTCGTG are within error of each other in switch fluorescence ratio: 1 ± 0.049 for the first, 1.01 ± 0.027 for the second.

ATAATTGGGA and ATAATTGTTT are within error of each other in switch fluorescence ratio: 0.99 ± 0.041 for the first, 0.984 ± 0.042 for the second.

ATAATTTAGC and ATACAAAA are within error of each other in switch fluorescence ratio: 0.961 ± 0.02 for the first, 1.02 ± 0.048 for the second.

First: ATACAAGACT
Second: ATACAATAGA
The switch fluorescence ratio of the first is higher: 1.06 ± 0.03 for the first, 1.004 ± 0.0087 for the second.

First: ATACACAATT
Second: ATACAGGGTG
The switch fluorescence ratio of the first is lower: 1.08 ± 0.054 for the first, 1.24 ± 0.019 for the second.

ATACAGGTCT and ATACATATTT are the same in switch fluorescence ratio: 1.03 ± 0.011 for the first, 1.035 ± 0.0075 for the second.

ATACATGTAG and ATACATTTGG are within error of each other in switch fluorescence ratio: 0.9845 ± 0.0047 for the first, 0.999 ± 0.014 for the second.

ATACCAGGGG and ATACCATCGG are within error of each other in switch fluorescence ratio: 1.08 ± 0.19 for the first, 0.981 ± 0.024 for the second.

ATACCATGGT and ATACCGAGTA are within error of each other in switch fluorescence ratio: 0.992 ± 0.053 for the first, 1.01 ± 0.049 for the second.

ATACCGGATT and ATACCTTATG are within error of each other in switch fluorescence ratio: 1.01 ± 0.046 for the first, 1 ± 0.029 for the second.

First: ATACCTTCGT
Second: ATACGACTTA
The switch fluorescence ratio of the first is higher: 1.692 ± 0.012 for the first, 1.04 ± 0.014 for the second.

Compared with ATACGATGAT, ATACGATGTA is lower in switch fluorescence ratio: 1.04 ± 0.017 for the first, 0.986 ± 0.014 for the second.

Going from ATACGGGGGG to ATACGGGTGC, the switch fluorescence ratio rises from 0.989 ± 0.017 to 1.26 ± 0.043.

ATACGTGGTG and ATACGTTATT are within error of each other in switch fluorescence ratio: 1.09 ± 0.086 for the first, 1.21 ± 0.057 for the second.

Going from ATACTATCTA to ATACTCCGGA, the switch fluorescence ratio rises from 1.03 ± 0.017 to 1.16 ± 0.055.

ATACTCGTGG and ATACTCGTTA are the same in switch fluorescence ratio: 1.01 ± 0.042 for the first, 1.01 ± 0.024 for the second.

ATACTGTGTT and ATACTTCATT are within error of each other in switch fluorescence ratio: 1.014 ± 0.0084 for the first, 1.03 ± 0.032 for the second.

ATAGAAGGGA and ATAGAATGAT are within error of each other in switch fluorescence ratio: 0.991 ± 0.044 for the first, 0.995 ± 0.017 for the second.

ATAGAATGCG and ATAGAATTAA are within error of each other in switch fluorescence ratio: 0.9955 ± 0.0012 for the first, 0.989 ± 0.013 for the second.

ATAGAATTGT and ATAGACGTCC are within error of each other in switch fluorescence ratio: 0.9803 ± 0.0091 for the first, 0.993 ± 0.015 for the second.

ATAGAGAGGT and ATAGAGCTTT are within error of each other in switch fluorescence ratio: 1.01 ± 0.012 for the first, 1.07 ± 0.085 for the second.

Going from ATAGAGGATA to ATAGATAGCC, the switch fluorescence ratio falls from 0.9861 ± 0.0073 to 0.96 ± 0.015.

First: ATAGATATAG
Second: ATAGATGTTG
The switch fluorescence ratio of the first is higher: 1.027 ± 0.0096 for the first, 0.9812 ± 0.0069 for the second.

Going from ATAGCATACG to ATAGCATGTT, the switch fluorescence ratio falls from 1.28 ± 0.047 to 1 ± 0.038.

ATAGCGGAAT and ATAGCGGGGG are within error of each other in switch fluorescence ratio: 1.007 ± 0.01 for the first, 0.998 ± 0.031 for the second.
